These results are taken from the RNAGym collection of RNA variant scans (doi:10.1093/molbev/msab373).

Sequences and labels used below:
B1: Azoarcus group I ribozyme (parent)
chain: GUGCCUUGCGCCGGGAAACCACGCAAGGGAUGGUGUCAAAUUCGGCGAAACCUAAGCGCCCGCCCGGGCGUAUGGCAACGCCGAGCCAAGCUUCGGCGCCUGCGCCGAUGAAGGUGUAGAGACUAGACGGCACCCACCUAAGGCAAACGCUAUGGUGAAGGCAUAGUCCAGGGAGUGGCGAAAGUCACACAAACCGG

In the series the parent is B1. Kind of series: reverse-splicing fitness (ratio to wild type); higher = more active; in vitro selection; Mg2+ level not given. In a few lines: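 An in vitro group I ribozyme library with randomized positions was T7-transcribed and gel-purified. In triplicate, 10 pmol RNA in EPPS pH 7.5 was reacted with 50 pmoles of a 30-nt RNA substrate for 1 h at 37 °C across several added MgCl2 levels (1–48 mM), then stopped with EDTA. Products were reverse transcribed from a substrate-complementary primer, PCR-amplified and sequenced (HiSeq 4000). Fitness is a variant's read proportion after selection over that before, normalised to wild type.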
C82G A145C C150U C169G: the reverse-splicing fitness amounted to 0.00731.
Under A111C A145G U176A stands 0.432.
Under C82G A120C A145U C150U C169A U176C stands 0.00984; under C82A A111C A120G C150U C169U U176A, 0.0157; under C82A A111C A120G A145C C150U C169U U176G, 0.00482.
Under C82G A111G A120C A145U C150G C169A U176C stands 0.0134; under C82U A111C A145G C169G U176C, 0.0306.
In the case of A111G A120G A145C C150G C169G U176A, the reverse-splicing fitness stood at 0.0101.
With C82G A120G C150G C169A U176G, the reverse-splicing fitness was found to be 0.00588.
On to C82G A111U A120G C150U C169A U176A, for which the reverse-splicing fitness is 0.0173.
Under C82U A111U C150G U176G stands 0.00369; under A120G A145G, 0.503; under A111C A145C C150A U176A, 0.0687.
Under C82U A111C A120U A145G C150G C169A U176C stands 0.00788; under A111U A145G C150G C169A U176G, 0.00707.
As to C82G A111C A120U A145U C150A C169A, the reverse-splicing fitness worked out at 0.00247.
Under C82U A111G A145C C150A C169U U176A stands 0.0133; under C82G A111G C150A C169A U176G, 0.00701.
In the case of C82U A111U C169U U176A, the reverse-splicing fitness worked out at 0.0149.
On to C82G A120G A145G C169G U176C, for which the reverse-splicing fitness was found to be 0.0345.
For the variant C82U A145C C169U U176G, the reverse-splicing fitness was found to be 0.00457.
Under C82G A111C A120C A145G C150U C169G U176G stands 0.00699; under C82U A111G A120C C150U C169A U176C, 0.011.
Under A111C A145C C150G U176G stands 0.0182.
Under A111C A145C C150G U176C stands 0.13; under C82U A120C A145G C150A C169U U176C, 0.0166; under C82U A120C A145G C150A C169U U176A, 0.0136.
As for C82A A111G A120G C150U C169G U176A, the reverse-splicing fitness was determined as 0.0166.
Under C82G A111C A145C C150G C169G U176A stands 0.00893; under C82G A111U A120G A145G C150U U176C, 0.0167; under A111G A120U C169A U176G, 0.00161.
Under A111C A120U C150U C169A U176A stands 0.00394; under C82U A111U A120U A145C C150G C169G U176C, 0.00216.
As to C82A A111G A120C A145U C150U C169U U176C, the reverse-splicing fitness came out at 0.0124.
Under C82G A111U A120C A145C C150U stands 0.0168; under A111U A120C A145U C150U U176C, 0.248; under C82G A111U A120C A145G C150A C169U U176A, 0.0148.
Under C82U A111C A120U A145C C150G C169U U176G stands 0.00217; under C82U A111G A120G C169U U176C, 0.0174; under A111C A120C A145C C150A C169G U176C, 0.0146.
Under A120U A145U C150U stands 0.785.
Take C82A A120U A145C C169U U176A: the reverse-splicing fitness turned out to be 0.00271.
On to A111G A120G A145G C150A C169A U176G, for which the reverse-splicing fitness is 0.00569.
Take C82G A145G C150U C169G U176A: the reverse-splicing fitness is 0.0145.
As for C82U A111C A120C A145G C150A C169G U176A, the reverse-splicing fitness came out at 0.015.
Under A111G A120U A145G C150U C169U stands 0.111; under C82A A111C A120C A145C C150U C169A, 0.0105.
Under A111C A120U A145U C150G C169U U176C stands 0.00398; under C82A A111G A120C A145C C169U, 0.0116.
Under A145C C169U stands 0.351; under C82G A120C C150G U176C, 0.0138.
Regarding C82A A111U A120G A145U C150G U176G, the reverse-splicing fitness was determined as 0.00424.
Under A111U A120U C150G stands 0.045; under C82A A120G A145C C169G U176A, 0.0259; under C82G A111U A120C A145G C150U U176A, 0.015.
C82G A111C A120G C150U C169G: the reverse-splicing fitness stood at 0.0113.
Under C82U A111C A120U A145C C150G U176C stands 0.00485; under C82A A111C C150G C169A U176G, 0.00698.
Under C82A A111U A120C A145G U176C stands 0.0361; under C82A A145C C150G C169G U176G, 0.00508.
Under C82A A111C A120G A145U C169G stands 0.00868.
On to A111C A120C A145U C169G, for which the reverse-splicing fitness was determined as 0.00945.
With A120G A145G C169U U176G, the reverse-splicing fitness is 0.0155.
Under A111U A145G C150A C169G U176G stands 0.00603.
With C82G A111U A120G A145C C150U U176G, the reverse-splicing fitness stood at 0.00601.
Turning to C82G A111U A120U A145U C150A C169A, the reverse-splicing fitness worked out at 0.00224.
As for C82A A111C A120G A145C C150A C169U U176C, the reverse-splicing fitness is 0.00893.
Under C82A A111U A120G C150U C169G U176C stands 0.0205.
With C82G A111C A120C C150G C169U, the reverse-splicing fitness was determined as 0.00996.
Under C82G A111G A145U C150A U176C stands 0.0339; under C82A A111U A120U A145G C150G U176A, 0.00697; under A111U A120G A145C C150G C169A, 0.0154.
Under C82A A111C A120C C150A C169G U176G stands 0.00878.
Under C82G A111G A120G A145U C150G C169G stands 0.00827; under A111G A120U A145G C150A C169G U176A, 0.0104.
As for C82G A111U A120U A145C, the reverse-splicing fitness stood at 0.0386.
Under C82A A111C A145G C150G C169U stands 0.00803.
Under A111G C150U C169A stands 0.0299; under A111G A120G C150U C169U, 0.142.
Under C82U A111C A120G A145G C150A stands 0.00814.
For the variant C82U A111C A120G A145G C150G, the reverse-splicing fitness turned out to be 0.00776.
Under A111C C150U C169G stands 0.0354; under C82U A111G A120C A145C C169G U176G, 0.00381; under C82G A111C A120U A145G C150U U176C, 0.0162.
